B1: mRNA-splicing (parent)
chain: AGUUGCUGCUGGGAGCUCCAGCACAGUGAAAUGGACAGAAGGGCAGAGCAA

Variants of: B1
Experiment: exon inclusion enrichment index; higher = more inclusion; WT1 exon 5 minigene, HEK293

Row | Variant | exon inclusion enrichment index
1 | AGUUCGCGCCGGGAGCUCCAGCACAGUGAAAUGGACAGAAGCUCAGAGCAA [G5C C6G U7C U10C G42C G43U] | 3.91
2 | AGUUCACACAGGGAGCUCCAGCACAGUGAAAUGGACAGAAGGGCGCAGCAA [G5C C6A U7C G8A U10A A45G G46C] | 0.26
3 | AGUUAUAUAUGGGAUGUCCAGCACAGUGAAAUGGACAGAAGGGCAGAGCAA [G5A C6U U7A G8U C9A G15U C16G] | 0.0108
4 | AGUUAUAUAUGGGAAAUCCAGCACAGUGAAAUGGACAGAAGGGCAGAGCAA [G5A C6U U7A G8U C9A G15A C16A] | 0.0139
5 | AGUUCUUCUCGGGAGCUUUAGCACAGUGAAAUGGACAGAAGGGCAGAGCAA [G5C C6U G8C C9U U10C C18U C19U] | 0.0402
6 | AGUUAUAUAUGGGAGCUCCAGCACAGUGAAAUGGACAGAAGGUUAGAGCAA [G5A C6U U7A G8U C9A G43U C44U] | 0.00909
7 | AGUUCACACAUCGAGCUCCAGCACAGUGAAAUGGACAGAAGGGCAGAGCAA [G5C C6A U7C G8A U10A G11U G12C] | 0.543
8 | AGUAUACGACGGGAGCUCCAGCACAGUGAAAUGGACAGAAGGGCAGAGCAA [U4A G5U C6A U7C C9A U10C] | 2.45
9 | AGUUCGCGCCGGGGACUCCAGCACAGUGAAAUGGACAGAAGGGCAGAGCAA [G5C C6G U7C U10C A14G G15A] | 2.07
10 | ACUUGACGACGGGAGCUCCAGCACAGUGAAAUGGACAGAAGGGCAGAGCAA [G2C C6A U7C C9A U10C] | 2.9
11 | AGUUAGGGAUGGGAGCUCCAGCACAGUGAAAUGGACAGAAGGGCCCAGCAA [G5A C6G U7G C9A A45C G46C] | 0.00399
12 | AGUUCACACAGGGAGCUCCAGCACAGUGAAGCGGACAGAAGGGCAGAGCAA [G5C C6A U7C G8A U10A A31G U32C] | 0.646
13 | AGUUCACACAGGGAGCUCGGGCACAGUGAAAUGGACAGAAGGGCAGAGCAA [G5C C6A U7C G8A U10A C19G A20G] | 0.0527
14 | AGUUCACACAGGGAGCUCCAGCAACGUGAAAUGGACAGAAGGGCAGAGCAA [G5C C6A U7C G8A U10A C24A A25C] | 0.742
15 | AGUUGACGACGGGAGCUCCAGCCCAGUGAAAUGGACAGAAGGGCAGAGCAA [C6A U7C C9A U10C A23C] | 3.27
16 | AGUUCGCGCCAGGAGCUCCAGCACAGUGAAAUGGACAGAAGGGCAGAGCAA [G5C C6G U7C U10C G11A] | 2.79
17 | AGUUAGGGAUGGGAGCUCCAGGCCAGUGAAAUGGACAGAAGGGCAGAGCAA [G5A C6G U7G C9A C22G A23C] | 0.000809
18 | AGUUAUAUAUGGGAGCUCCAGCACAGUGAAAUGGACAGAUAGGCAGAGCAA [G5A C6U U7A G8U C9A A40U G41A] | 0.00198
19 | AGUUGACGACGGGAGCUCCAGCACAGUGAAAUGCACAGAAGGGCAGAGCAA [C6A U7C C9A U10C G34C] | 1.79
20 | AGUUUCUUUUGGGAGCCUCAGCACAGUGAAAUGGACAGAAGGGCAGAGCAA [G5U G8U C9U U17C C18U] | 0.0755
21 | AGUUUCUUUUGGGAGCUCCAGCACACCGAAAUGGACAGAAGGGCAGAGCAA [G5U G8U C9U G26C U27C] | 0.621
22 | AGUUUCUUUUGGGAGCUCCAGCACAGUGAAAUGGACACGAGGGCAGAGCAA [G5U G8U C9U G38C A39G] | 0.136
23 | AGUUAGGCCUGGGAGCUCCAGCACAGUGAAAUGGACAGAAGGGCAGAGCAA [G5A C6G U7G G8C] | 0.00742
24 | AGUUCUUCUCGGGAGCUCCAGCACAGUGUGAUGGACAGAAGGGCAGAGCAA [G5C C6U G8C C9U U10C A29U A30G] | 2.16
25 | AGUUGCUGCUGGGAGCUCCAGCACAGUGACUUGGACAGAAGGGCAGAGCAA [A30C A31U] | 0.103
26 | AGUUUCCGACGGGAGCUCCAGCACAGUGAAAUGGACAGAAGGGCAGAGCAA [G5U U7C C9A U10C] | 2.66

Row | Variant | exon inclusion enrichment index
27 | AGUUAGAACCGGGAGCUCCAGCACAGUGAAAUGGACAGAAGGGCAGAGCAA [G5A C6G U7A G8A U10C] | 0.237
28 | AGUUUCUUUUGGGAGUGCCAGCACAGUGAAAUGGACAGAAGGGCAGAGCAA [G5U G8U C9U C16U U17G] | 0.0101
29 | AGUUACCACCGGGAGCUCCAGCACAGUGGUAUGGACAGAAGGGCAGAGCAA [G5A U7C G8A U10C A29G A30U] | 0.757
30 | AGUUCUUCUAGGGAGCUCCAGCACAGUGAAAUGGACAGAAGGGCAGAGCAA [G5C C6U G8C C9U U10A] | 0.186
31 | AGUUUCUUUUGGGAGCUCCAGCACAGUGAAAUGGACAAGAGGGCAGAGCAA [G5U G8U C9U G38A A39G] | 0.151
32 | AGUUUCUUUUGGGAGCUCCAUCACAGUGAAAUGGACAGAAGGGCAGAGCAA [G5U G8U C9U G21U] | 0.078
33 | AGUUGACCACGGGAGCUCCAGCACAGUGAAAUGGACAGAAGGGCAGAGCAA [C6A U7C G8C C9A U10C] | 2.29
34 | AGUUCACACAGGGAGGCCCAGCACAGUGAAAUGGACAGAAGGGCAGAGCAA [G5C C6A U7C G8A U10A C16G U17C] | 0.0308
35 | AGUUCACACAGGGAGCUCCAGCACAGUGAAAUGGACAGAUUGGCAGAGCAA [G5C C6A U7C G8A U10A A40U G41U] | 0.0362
36 | AGUUACCACCGGGAGCUCCAGCACAGCGAAAUGGACAGAAGGGCAGAGCAA [G5A U7C G8A U10C U27C] | 4.31
37 | AGUUACCACCGGGAGCUCCAGCACAGGUAAAUGGACAGAAGGGCAGAGCAA [G5A U7C G8A U10C U27G G28U] | 0.0167
38 | AGCCACCACCGGGAGCUCCAGCACAGUGAAAUGGACAGAAGGGCAGAGCAA [U3C U4C G5A U7C G8A U10C] | 2.69
39 | AGUUACCACCGGGAGCUCCAGCACACAGAAAUGGACAGAAGGGCAGAGCAA [G5A U7C G8A U10C G26C U27A] | 2.48
40 | AGUUGAAGAAGGGAGCUCCAGCAAGGUGAAAUGGACAGAAGGGCAGAGCAA [C6A U7A C9A U10A C24A A25G] | 0.796
41 | AGUUAUAUAUGGGAGCUCCAGCACAGUGCUAUGGACAGAAGGGCAGAGCAA [G5A C6U U7A G8U C9A A29C A30U] | 0.0308
42 | AGUUUCUUUUGGGAGCUCCAGCACAGUGAAAUUAACAGAAGGGCAGAGCAA [G5U G8U C9U G33U G34A] | 0.00858
43 | AGUUUCUUUUGGGAGCUCCAGCACAGUGAAAUUUACAGAAGGGCAGAGCAA [G5U G8U C9U G33U G34U] | 0.00702
44 | AGUUGAAGAAGGGAGCUCCAGCACAGGUAAAUGGACAGAAGGGCAGAGCAA [C6A U7A C9A U10A U27G G28U] | 0.003
45 | AGUUGACGACGGGAGCUCCAGCACAGUGGUAUGGACAGAAGGGCAGAGCAA [C6A U7C C9A U10C A29G A30U] | 1.72
46 | AGUUGACGACGGGAGCUCCAGCACAGUGCAAUGGACAGAAGGGCAGAGCAA [C6A U7C C9A U10C A29C] | 3.21
47 | AGUUCGCGCCGGGAGCUCCAGCACAGUGAAAUGGACAGAAGGGAAGAGCAA [G5C C6G U7C U10C C44A] | 4.17
48 | AGUUUCUUUUGGGAGCUCCAGCACAGUGCCAUGGACAGAAGGGCAGAGCAA [G5U G8U C9U A29C A30C] | 0.344
49 | AGUUCGCGCCGGGAGCUCCAGCACAGUGCCAUGGACAGAAGGGCAGAGCAA [G5C C6G U7C U10C A29C A30C] | 3.82
50 | AGUUACCACCGGGAGCUCCAGCACAGUGAAAAAGACAGAAGGGCAGAGCAA [G5A U7C G8A U10C U32A G33A] | 1.05
51 | AGUUAGGGAUGGGAGCUCCAGCACAGUGAAAUGGACAGAAGAACAGAGCAA [G5A C6G U7G C9A G42A G43A] | 0.0419

From the RNAGym collection of RNA variant scans (doi:10.1101/gr.219683.116)
